# Experimental data published in patent publication US20150132779A1 (TOKYO METROPOLITAN INSTITUTE OF MEDICAL SCIENCE, published 2015).
# B1: trypsin-resistant tandem ubiquitin binding entity (TR-TUBE) (designed binder)
# chain: MRGCHHHHHHGMASMTGGQQMGDIGGGGSGGGVNPQLQNPEVAFQQQLEQLSAMGFLNAEANLQALIATGGDINAAIEALLGSQPSGGGGSGGGVNPQLQNPEVAFQQQLEQLSAMGFLNAEANLQALIATGGDINAAIEALLGSQPSGGGGSGGGVNPQLQNPEVAFQQQLEQLSAMGFLNAEANLQALIATGGDINAAIEALLGSQPSGGGGSGGGVNPQLQNPEVAFQQQLEQLSAMGFLNAEANLQALIATGGDINAAIEALLGSQPSGGGGSGGGVNPQLQNPEVAFQQQLEQLSAMGFLNAEANLQALIATGGDINAAIEALLGSQPSGGGGSGGGVNPQLQNPEVAFQQQLEQLSAMGFLNAEANLQALIATGGDINAAIEALLGSQPSGGGGS
# modifications: Cys residue upstream of the hexahistidine tag biotinylated with EZ-link Maleimide-PEG2-Biotin
# notes: also called 6x TR-TUBE; biotinylated TR-TUBE
# Target: T1, ubiquitin monomer (S. cerevisiae (yeast lysate), UniProt P0CG63 1-76)
# T1 construct: mature; Endogenous monomer of the yeast lysate, seen by western blot in the pull-down experiment; also called monoubiquitin (free, in yeast lysate)
# T1 sequence (P0CG63 1-76 limits assumed): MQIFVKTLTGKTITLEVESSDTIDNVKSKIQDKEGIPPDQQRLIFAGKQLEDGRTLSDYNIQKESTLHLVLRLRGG
# Assay: pull-down from yeast lysate with biotinylated TR-TUBE and streptavidin beads, anti-ubiquitin western blot
# Experimental: For Ub-ProT assay of yeast extracts, 30 OD₆₀₀ units of log-phase cells were harvested and lysed with glass beads in 300 μl of lysis buffer (50 mM Tris-HCl [pH 7.5], 100 mM NaCl, 10% glycerol, 10 μM MG132, 10 mM iodoacetamide, and 1× complete protease inhibitor cocktail [Roche, EDTA-free]). After centrifugation, the supernatant (100 μg) was incubated with TR-TUBE (10 μg) for 1 h at 4° C. Next, TR-TUBE-bound polyubiquitylated proteins were incubated with Dynabeads MyOne Streptavidin C1 (1 mg, Life Technologies) for 45 min at 4° C. The beads were washed three times with PBS-T, and then incubated in 100 μl of 50 mM AMBC, 0.01% Rapigest SF, and trypsin (1.5 μg) overnight at 37° C. […] After the beads were washed with PBS-T, the polyubiquitin chains were selectively eluted by 30-min incubation with 1× NuPAGE LDS sample buffer. The samples were directly subjected to electrophoresis on NuPAGE gels in order to avoid aggregation of polyubiquitin chains.
# The inventors of the present invention next investigated the mean lengths of substrate-attached polyubiquitin chains in yeast lysate. To the knowledge of the inventors of the present invention, the actual chain lengths of polyubiquitylated proteins in vivo have not been previously determined. In this experiment, the inventors of the present invention used a drug-sensitive pdr5 mutant to determine the effect of a proteasome inhibitor, MG132. […]
binder,measurement,value
B1,binding result,no binding
